Assays:
[1] = target: (His)6MazE-MazF complex (Escherichia coli, UniProt P0AE72;P0AE70 SEQ:1-82,SEQ:1-111); assay: EMSA; shift at 0.2 uM MazE, MazE:MazF 1:2; more than ten-fold enhancement over MazE; conditions: tags: N-terminal His6 on MazE; chain copies: MazF2-MazE2-MazF2 (stated); label: 32P
[2] = target: MazE-MazF(His)6 complex (Escherichia coli, UniProt P0AE72;P0AE70 SEQ:1-82,SEQ:1-111); assay: EMSA; 1 uM complex; conditions: tags: C-terminal His6 on MazF; chain copies: MazF2-MazE2-MazF2 (stated); label: 32P
[3] = target: (His)6MazE(K7A) (Escherichia coli, UniProt P0AE72 SEQ:1-82, K7A); assay: EMSA; 4 uM; conditions: tags: N-terminal His6; chain copies: 2; label: 32P
[4] = target: (His)6MazE(R16A) (Escherichia coli, UniProt P0AE72 SEQ:1-82, R16A); assay: EMSA; 4 uM; conditions: tags: N-terminal His6; chain copies: 2; label: 32P
[5] = target: (His)6MazE(R8A) (Escherichia coli, UniProt P0AE72 SEQ:1-82, R8A); assay: EMSA; 4 uM; conditions: tags: N-terminal His6; chain copies: 2; label: 32P
[6] = target: (His)6MazE(S12A) (Escherichia coli, UniProt P0AE72 SEQ:1-82, S12A); assay: EMSA; 4 uM; conditions: tags: N-terminal His6; chain copies: 2; label: 32P
[7] = target: (His)6MazE(F53A) (Escherichia coli, UniProt P0AE72 SEQ:1-82, F53A); assay: EMSA; data not shown; conditions: tags: N-terminal His6; chain copies: 2; label: 32P
[8] = target: (His)6MazE(E57Q) (Escherichia coli, UniProt P0AE72 SEQ:1-82, E57Q); assay: EMSA; data not shown; conditions: tags: N-terminal His6; chain copies: 2; label: 32P
[9] = target: (His)6MazE(R48A) (Escherichia coli, UniProt P0AE72 SEQ:1-82, R48A); assay: EMSA; data not shown; conditions: tags: N-terminal His6; chain copies: 2; label: 32P
[10] = target: MazF (Escherichia coli, UniProt P0AE70 SEQ:1-111); assay: EMSA; no binding up to 20 uM; conditions: tags: untagged; chain copies: 2; label: 32P
[11] = target: (His)6MazE (Escherichia coli, UniProt P0AE72 SEQ:1-82); assay: EMSA; discrete shift at 2 uM or higher; smear at 0.4-1.0 uM; 5 mM MgCl2, poly(dI-dC), 4 C; conditions: tags: N-terminal His6; chain copies: 2 (inferred); label: 32P

B1: mazEF promoter 50-bp (dsDNA)
DNA 1: GCTCGTATCTACAATGTAGATTGATATATACTGTATCTACATATGATAGC
DNA 2: GCTATCATATGTAGATACAGTATATATCAATCTACATTGTAGATACGAGC
B1: binds [1]; binds [2]; no binding [3]. B1: no binding [4]; no binding [5]; no binding [6]. B1: binds [7]; binds [8]; binds [9]. B1: no binding [10]; binds [11].
